To fix the notation:
B1: OR4K15 (parent)
chain: GUUAACGGUCAUAGGCCAUGGAAACUAGGAGCACCAUUUCGCUGCCAGUGAAGAAAUGAACAAAGAAAAUCUGGGCCAGGCAGGCAUCAAAAGAAAUAGUCUUGCGCUCAACCAGAAAGUCUGUAAUCAUUUUAAGGGUA

Variants of B1 are the subject of this series. The experiment in a line: self-cleavage, relative activity (ratio to wild type); higher = more cleavage; in vitro, sequencing; the parent is a self-cleaving ribozyme.
For the variant GUUAACGGUCAUAGGCCAUGGAAACUAGGAGCACCAUCUCGCUGCCAGUGAAGAAAUGAAAAAAGAAAAUCUGGGCCAGGCAGGCAUCAAAAGAAAUAGUCUUGCGCUCAACCAGAAAGUCUGUAAUCAUUUUAAGGGUA [U38C C61A], the self-cleavage is 0.99.

Regarding GUUAACGGUCAUAGGCCAUGGAAACUAGGAGCACCAUCUCGCUGCCAGUGAAGAAAUGAACAAAGAAAAUCUGGGCCAGGCAGGCAUCAAAAGAAAUAGUCUUGCGCUCAACCAGAAAGUCUGUAGUCAUUUUAAGGGUA [U38C A126G], the self-cleavage is 1.56.

For the variant GUUAACGGUCAUAGGCCAUGGAAACUAGGAGCACCAUCUCGCUGCCAGUGAAGAAAUGAACAAAGAAAAUCUGGGCCAGGCAGGCAUCAAAAGAAAUAGUCUUGCGCUAAACCAGAAAGUCUGUAAUCAUUUUAAGGGUA [U38C C109A], the self-cleavage was 0.51.

On to GUUAACGGUCAUAGGCCAUGGAAACUAGGAGCACCAUCUCACUGCCAGUGAAGAAAUGAACAAAGAAAAUCUGGGCCAGGCAGGCAUCAAAAGAAAUAGUCUUGCGCUCAACCAGAAAGUCUGUAAUCAUUUUAAGGGUA [U38C G41A], for which the self-cleavage is 1.95.

For GUUAACGGUCAUAGGCCAUGGAAACUAGGAGCACCAUCUCGCUGCCAGUGAAGAAAUGAACAAAGAAAAUCUGGACCAGGCAGGCAUCAAAAGAAAUAGUCUUGCGCUCAACCAGAAAGUCUGUAAUCAUUUUAAGGGUA [U38C G75A], the self-cleavage came to 0.13.

On to GUUAACGGUCAUAGGCCAUGGAAACUAGGAGCACCAUCUCGCUGCCAGUGAAGAAAUGAACAAAGAAAAUCUGGGCCAGGCAGGCAUAAAAAGAAAUAGUCUUGCGCUCAACCAGAAAGUCUGUAAUCAUUUUAAGGGUA [U38C C88A], for which the self-cleavage was found to be 1.74.

With GUUAACGGUCAUAGGCCAUGGAAACUAGGAGCACCAUCUCGCUACCAGUGAAGAAAUGAACAAAGAAAAUCUGGGCCAGGCAGGCAUCAAAAGAAAUAGUCUUGCGCUCAACCAGAAAGUCUGUAAUCAUUUUAAGGGUA [U38C G44A], the self-cleavage was 1.16.

Consider GUUAACGGUCAUAGGCCAUGGAAACUAGGAGCACCAUCUCGCUGCCAGUGAAGAAAUGAACAAAGAAAAUCUGGGCCAGGCAGGCAUCAAAAGAAAUAGUCUUGCGCUCAACUAGAAAGUCUGUAAUCAUUUUAAGGGUA [U38C C113U], for which the self-cleavage worked out at 0.14.

On to GUUAACGGUCAUAGGCCAUGGAAACUAGGAGCACCAUCUCGCUGCCAGUGAAGAAAUGAACAAAGAAAAUCUGGGCCAGGCAGGCAUCAAAAGAAAUAGUCUUGCGCUCAGCCAGAAAGUCUGUAAUCAUUUUAAGGGUA [U38C A111G], for which the self-cleavage was 0.02.

Consider GUUAACGGUCAUAGGCCAUGGAAACUAGGAGCACCAUCUCGCUGCCAGUGAAGAAAUGAACAAAGAAAAUCUGGGCCAGGCAGGCAUCAAAAGAAAUAGUCUUGCGCUCAACCAGAAGGUCUGUAAUCAUUUUAAGGGUA [U38C A118G], for which the self-cleavage is 1.14.

Regarding GUUAACGGUCAUAGGCCAUGGAAACUAGGAGCACCAUCUCGCUGUCAGUGAAGAAAUGAACAAAGAAAAUCUGGGCCAGGCAGGCAUCAAAAGAAAUAGUCUUGCGCUCAACCAGAAAGUCUGUAAUCAUUUUAAGGGUA [U38C C45U], the self-cleavage was 1.23.

Turning to GUUAACGGUCAUAGGCCAUGGAAACUAGGAGCACCAUCUCGCUGCCAGUGAAGAAAUGAACAAAGAAAAUCUGAGCCAGGCAGGCAUCAAAAGAAAUAGUCUUGCGCUCAACCAGAAAGUCUGUAAUCAUUUUAAGGGUA [U38C G74A], the self-cleavage was determined as 0.33.

For the variant GUUAACGGUCAUAGGCCAUGGAAACUAGGAGCACCAUCUCGCUGCCAGUGAAGAAAUGAACAAAGAAAAUCUGGGCUAGGCAGGCAUCAAAAGAAAUAGUCUUGCGCUCAACCAGAAAGUCUGUAAUCAUUUUAAGGGUA [U38C C77U], the self-cleavage came out at 2.04.

GUUAACGGUCAUAGGCCAUGGAAACUAGGAGCACCAUCUCGCUGCCAGUGAAGAAAUGAACAAAGAAAAUCUGGGCCAGGCAGGCAUCAAAAGAAAUAGUCUUGCGCUCGACCAGAAAGUCUGUAAUCAUUUUAAGGGUA [U38C A110G]: the self-cleavage amounted to 0.17.

Regarding GUUAACGGUCAUAGGCCAUGGAAACUAGGAGCACCAUCUCGCUGCCAGUGAAGAAAUGAACAAAGAAAAUCUGGGCCAGGCAGGCAUCAAAAGAAAUAGUCUUGCGCUCAACCAGAAAGUUUGUAAUCAUUUUAAGGGUA [U38C C121U], the self-cleavage amounted to 1.86.

Regarding GUUAACGGUCAUAGGCCAUGGAAACUAGGAGCACCAUCUCGCUGCCAGUGAAGAAAUGAACAAAGAAAAUCUGGGCCAGGCAGGCAUCAAAAGAAAUAGUCUUGCGCUCAACCGGAAAGUCUGUAAUCAUUUUAAGGGUA [U38C A114G], the self-cleavage came out at 0.75.

Take GUUAACGGUCAUAGGCCAUGGAAACUAGGAGCACCAUCUCGCUGCCAGUGAAGAAAUGAACAAAGAAAAUCUGGGCCAGGCAGGCAUCAAAAGAAAUUGUCUUGCGCUCAACCAGAAAGUCUGUAAUCAUUUUAAGGGUA [U38C A98U]: the self-cleavage is 1.89.

Regarding GUUAACGGUCAUAGGCCAUGGAAACUAGGAGCACCAUCUCGCUGCCAGUGAAGAAAUGAACAAAGAAAAUCUGGGCCAGGCAGGCAUCAAAAGAAAUAGUCUUGCGCUCAAUCAGAAAGUCUGUAAUCAUUUUAAGGGUA [U38C C112U], the self-cleavage came to 0.02.

For the variant GUUAACGGUCAUAGGCCAUGGAAACUAGGAGCACCAUCUCGCUGCCAGUGAAGAAAUGAACAAAGAAAAUCUGGGCCAGGCAGGCAUCAAAAGAAAUAGUCUUGCGCUCAAACAGAAAGUCUGUAAUCAUUUUAAGGGUA [U38C C112A], the self-cleavage was 0.

On to GUUAACGGUCAUAGGCCAUGGAAACUAGGAGCACCAUCUCGCUGCCAGUGAAGAAAUGAACAAAGAAAAUCUGGGCCAGGCAGGCAUCAAAAGAAAUAGUCUUGAGCUCAACCAGAAAGUCUGUAAUCAUUUUAAGGGUA [U38C C105A], for which the self-cleavage was 0.05.

Turning to GUUAACGGUCAUAGGCCAUGGAAACUAGGAGCACCAUCUAGCUGCCAGUGAAGAAAUGAACAAAGAAAAUCUGGGCCAGGCAGGCAUCAAAAGAAAUAGUCUUGCGCUCAACCAGAAAGUCUGUAAUCAUUUUAAGGGUA [U38C C40A], the self-cleavage was found to be 1.48.

Values taken from the RNAGym collection of RNA variant scans (doi:10.7554/elife.90254).
